Measurements published in US20140134170A1, “USE OF INHIBITORS OF EGFR-FAMILY RECEPTORS IN THE TREATMENT OF HORMONE REFRACTORY BREAST CANCERS” (MERRIMACK PHARMACEUTICALS, INC., priority 2011, published 2014).

Key:
ErbB3 (pErbB3) = biological target: T1, ErbB3 (pErbB3) (Homo sapiens, UniProt P21860); experiment: Western blot for phosphorylated ErbB3 in ligand-stimulated MCF7 cells; assay type: cell-based; conditions: for phosphorylation of ErbB3 in stimulated cells: MCF7 cells without MM-121, stimulated 30 minutes, betacellulin relative to heregulin
T1 construct: endogenous in cells; host or cells: MCF7
Experimental: (§1) FIG. 1 comprises images of western blots of a gel of lysates from untreated control cells (“C”), cells pretreated with (“MM121”) or without pretreatment with MM-121 that were stimulated with heregulin beta 1 (“HRG”), betacellulin (“BTC”), or estrogen (“E2”).
(§2) MCF7 cells are either untreated or pretreated with MM-121 (250 nM) for 1 hour. Cells are then stimulated with heregulin betal (EGF domain, 10 nM R&D systems), betacellulin (20 nM, R&D systems) or estrogen (beta estradiol—100 nM, Sigma) for 30 minutes, or left unstimulated. Lysates of the cells are analyzed by western blot probed for pER and for pErbB3.
(§3) Cells were either untreated or pretreated with MM-121. Untreated and pretreated cells were stimulated with heregulin, betacellulin, or estrogen. Cell lysates were analyzed by western blot for phosphorylated forms of ErbB3 and estrogen receptor.

[1] = system: estrogen receptor alpha (pER, ser 167 and ser 118); experiment: Western blot/densitometry for phosphorylated estrogen receptor in ligand-stimulated MCF7 cells; assay type: cell-based, human; conditions: for phosphorylation of the estrogen receptor in stimulated cells: MCF7 cells without MM-121, stimulated 30 minutes, betacellulin relative to heregulin
Text: as §1
FIG. 2 is a graph showing densitometry results from the relevant (pER) band in each of the control (“Con.”), heregulin (“HRG”), betacellulin (“BTC”), heregulin plus MM-121 (“HRG+MM121”) and betacellulin plus MM-121 (“BTC+MM121”) lanes in FIG. 1. Band density was normalized to GAPDH density and the normalized density (Y-axis) is shown for control and stimulated cells (both with and without MM-121 pretreatment) as indicated on the X-axis. The arrowhead between the HRG and BTC lanes indicates the pER band in the HRG lane.
as §2, §3

MCF-7CA tumors = experiment: Letrozole-resistant MCF-7CA intratumoral aromatase xenograft model; assay type: in vivo, mice; conditions: for tumor growth during initial treatment: MM-121 600 μg Q3D i.p., letrozole 10 μg/mouse/day, treatment from the start; for tumor volume after acquired letrozole resistance: letrozole-resistant tumors re-grouped at about 14 weeks, followed to 19 weeks
Experimental: To investigate the mechanism of AI resistance, a xenograft model was developed that corresponds to ER+ postmenopausal breast cancer. Tumors for this intratumoral aromatase xenograft model are grown from MCF7 human breast adenocarcinoma cells that have been stably transfected with a human placental aromatase gene to provide a non-ovarian source of estrogen production in ovariectomized athymic mice (MCF-7CA, see e.g. Brodie et al., Clinical Cancer Research 884s Vol. 11, 884s-888s, Jan. 15, 2005 (Suppl.)). Sufficient estrogen is produced (from aromatization of injected androstenedione) by the MCF7-CA cells to stimulate their proliferation and tumor formation. This is a model of a postmenopausal breast cancer patient with tumors that express aromatase and are free of gonadotropin feedback regulation.
MCF-7CA cells were cultured in Eagle's minimum essential medium containing 5% fetal bovine serum and neomycin. The culture medium was changed twice weekly. Subconfluent MCF-7CA cells were scraped into Hank's solution and centrifuged at 1,000 rpm for 2 min at 4° C. The cells were then resuspended in Matrigel™ (10 mg/ml) to make a cell suspension of 2-5×10^7 cells/ml. Ovariectomized female BALB/c athymic mice 4-6 weeks of age (20-22 g body weight) were housed in a pathogen-free environment under controlled conditions of light and humidity and received food and water ad libitum. Each mouse was inoculated subcutaneously (s.c.) with 0.1 ml of the cell suspension. Animals were then injected s.c. daily with 0.1 mg androstenedione/mouse. Growth rates were determined by measuring the tumors with calipers weekly. Tumor volumes were calculated according to the formula for a sphere (4/3 r12. r 2). When tumors reached a measurable size, mice were divided into groups of 10 animals with equivalent tumor volumes (300 mm^3). Mice were treated with 0.1 ml compounds in 0.3% hydroxypropylcellulose (HPC) for 6 weeks.
Tumors were measured weekly and tumor volume was calculated. Mice were sacrificed if tumors continued to grow to volumes of greater than about 1400-1700 mm^3.

[2] = system: TAMR-1, TAMR-7, or TAMR-8 cells (tamoxifen-resistant human mammary carcinoma xenografts); experiment: Tamoxifen-resistant MCF7 variant xenografts, MM-121 monotherapy; assay type: in vivo; conditions: 600 μg per mouse IP every three days; TAMR xenografts in nude mice
Experimental: Analyses of the anti-tumor efficacy and tolerability of MM-121 treatment of ER+ hormone refractory mammary tumor-bearing mice are carried out using xenografts of tamoxifen-resistant variants of MCF7 human mammary carcinoma cells. Tamoxifen-resistant human mammary carcinoma cell lines TAMR-1, TAMR-7, and TAMR-8 cells are obtained from the laboratory of A. E. Lykkesfeldt (Department of Tumor Endocrinology, Division for Cancer Biology, Danish Cancer Society. Strandboulevarden 49, DK-2100 Copenhagen 0, Denmark). These are grown as xenografts in female athymic nu+/nu+ nude mice obtained from Charles River Laboratories International. […]
To investigate anti-tumor efficacy in monotherapy, MM-121 or vehicle control (100 μL) is given to tumor-bearing mice (i.e., after 14 days of tumor growth following injection of cells) at 600 μg per mouse (MM-121 as a 6 mg/mL solution in PBS) by IP injection every three days. […] Efficacy is determined by comparing tumor growth between the antibody-treated mice and the vehicle control mice and is expressed as the experimental to control ratio of median relative tumor volumes (T/C value). […]
Mice are randomized and therapy begins when a sufficient number of individual tumors have grown to a volume of approximately 200 mm^3. Tumors are measured (L x W) by digital caliper measurement and the tumor volume is calculated using the formula π/6 (W^2×L). […]

## heregulin: heregulin beta 1 (EGF domain, R&D systems), stimulating ligand
ErbB3 (pErbB3)
  phosphorylation of ErbB3 in stimulated cells: exhibited phosphorylation of both the estrogen receptor and ErbB3
[1]
  phosphorylation of the estrogen receptor in stimulated cells: exhibited phosphorylation of both the estrogen receptor and ErbB3
[1]; MCF7 cells, heregulin 10 nM vs beta estradiol 100 nM, 30 minutes
  level of ER phosphorylation relative to estrogen stimulation: at least four-fold

## N#Cc1ccc(C(c2ccc(C#N)cc2)n2cncn2)cc1 [letrozole]
MCF-7CA tumors
  tumor growth during initial treatment: progressed more slowly
  tumor volume after acquired letrozole resistance: continued to increase in volume over time
MCF-7CA tumors; daily letrozole 10 μg/mouse/day
  time to letrozole resistance (tumor volume increased to 600 mm^3): about 14 weeks

## betacellulin: betacellulin (R&D systems), EGF-like stimulating ligand
ErbB3 (pErbB3)
  phosphorylation of ErbB3 in stimulated cells: to a lesser extent (about ⅔ less)
[1]
  phosphorylation of the estrogen receptor in stimulated cells: to a lesser extent (about ⅔ less)

B1: MM-121: fully human anti-ErbB3 monoclonal antibody; VH and VL SEQ ID NOs: 1 and 2; heavy and light chains SEQ ID NOs 42 and 43 (antibody, listed as Homo sapiens)
heavy: EVQLLESGGGLVQPGGSLRLSCAASGFTFSHYVMAWVRQAPGKGLEWVSSISSSGGWTLYADSVKGRFTISRDNSKNTLYLQMNSLRAEDTAVYYCTRGLKMATIFDYWGQGTLVTVSSASTKGPSVFPLAPCSRSTSESTAALGCLVKDYFPEPVTVSWNSGALTSGVHTFPAVLQSSGLYSLSSVVTVPSSNFGTQTYTCNVDHKPSNTKVDKTVERKCCVECPPCPAPPVAGPSVFLFPPKPKDTLMISRTPEVTCVVVDVSHEDPEVQFNWYVDGVEVHNAKTKPREEQFNSTFRVVSVLTVVHQDWLNGKEYKCKVSNKGLPAPIEKTISKTKGQPREPQVYTLPPSREEMTKNQVSLTCLVKGFYPSDIAVEWESNGQPENNYKTTPPMLDSDGSFFLYSKLTVDKSRWQQGNVFSCSVMHEALHNHYTQKSLSLSPGK
light: QSALTQPASVSGSPGQSITISCTGTSSDVGSYNVVSWYQQHPGKAPKLIIYEVSQRPSGVSNRFSGSKSGNTASLTISGLQTEDEADYYCCSYAGSSIFVIFGGGTKVTVLGQPKAAPSVTLFPPSSEELQANKATLVCLVSDFYPGAVTVAWKADGSPVKVGVETTKPSKQSNNKYAASSYLSLTPEQWKSHRSYSCRVTHEGSTVEKTVAPAECS
[2]
  tumor growth: inhibits or stops tumor growth, and in some cases reduces tumor size
ErbB3 (pErbB3); MCF7 cells pretreated with MM-121 250 nM for 1 hour, heregulin 10 nM for 30 minutes
  reduction in the amount of pErbB3: about ⅔
[1]; MCF7 cells pretreated with MM-121 250 nM for 1 hour, heregulin 10 nM for 30 minutes, densitometry normalized to GAPDH
  reduction in the amount of pER: about ⅔
MCF-7CA tumors
  tumor growth during initial treatment: grew rapidly over the course of 5 weeks
  tumor volume after acquired letrozole resistance: continued to increase in volume over time
